# Assay results from PMC8093215 (2021).
# Experiments:
# [1] = target: hDNMT1 BAH1 domain Y775A (human, UniProt P26358 728-900, Y775A); experiment: ITC
# [2] = target: hDNMT1 BAH1 domain D768A (human, UniProt P26358 728-900, D768A); experiment: ITC
# hDNMT1 BAH1 domain D768A, sequence (P26358 728-900 D768A): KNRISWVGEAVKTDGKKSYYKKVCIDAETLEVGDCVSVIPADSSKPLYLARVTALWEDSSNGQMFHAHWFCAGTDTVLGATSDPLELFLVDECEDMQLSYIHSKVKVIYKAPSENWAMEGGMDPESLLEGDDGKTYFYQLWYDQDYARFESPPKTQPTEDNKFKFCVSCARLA
# hDNMT1 BAH1 domain Y775A, sequence (P26358 728-900 Y775A): as the sequence (P26358 728-900 D768A) above, with A41D, Y48A counted along it
binder,measurement,setting,value
GAKRHRKVLRDNY (trimethyl-lysine at K20) [H4(14–25)K20me3 peptide],Kd,[1],361 µM
same,Kd,[2],10 µM
